Target: the molecule itself
Test: mass spectrometry

B1: recombinant full-length human butyrylcholinesterase, usual form (rBChE-U) (enzyme)
chain: EDDIIIATKNGKVRGMNLTVFGGTVTAFLGIPYAQPPLGRLRFKKPQSLTKWSDIWNATKYANSCCQNIDQSFPGFHGSEMWNPNTDLSEDCLYLNVWIPAPKPKNATVLIWIYGGGFQTGTSSLHVYDGKFLARVERVIVVSMNYRVGALGFLALPGNPEAPGNMGLFDQQLALQWVQKNIAAFGGNPKSVTLFGESAGAASVSLHLLSPGSHSLFTRAILQSGSFNAPWAVTSLYEARNRTLNLAKLTGCSRENETEIIKCLRNKDPQEILLNEAFVVPYGTPLSVNFGPTVDGDFLTDMPDILLELGQFKKTQILVGVNKDEGTAFLVYGAPGFSKDNNSIITRKEFQEGLKIFFPGVSEFGKESILFHYTDWVDDQRPENYREALGDVVGDYNFICPALEFTKKFSEWGNNAFFYYFEHRSSKLPWPEWMGVMHGYEIEFVFGLPLERRDNYTKAEEILSRSIVKRWANFAKYGNPNETQNNSTSWPVFKSTEQKYLTLNTESTRIMTKLRAQQCRFWTSFFPKVLEMTGNIDEAEWEWKAGFHRWNNYMMDWKNQFNDYTSKKESCVGL
stoichiometry N: 2

Reference: article PMC2719355 (The Journal of Biological Chemistry, 2009)
